Data published in US20230002480A1.

Assays:
Assay in all cases: cell-based or functional assay
[1] = molecular target: HIV-1 Env of pseudovirus RHPA4259.7 (HIV-1)
[2] = molecular target: HIV-1 Env of pseudovirus ZM249M.PL1 (HIV-1)
[3] = molecular target: HIV-1 Env of pseudovirus CAAN5342.A2 (HIV-1)
[4] = molecular target: HIV-1 Env of pseudovirus WEAU_d15_410_787 (HIV-1)
[5] = molecular target: HIV-1 Env of pseudovirus CNE52 (HIV-1)
[6] = molecular target: HIV-1 Env of pseudovirus ZM135M.PL10a (HIV-1)
[7] = molecular target: HIV-1 Env of pseudovirus Q259.d2.17 (HIV-1)
[8] = molecular target: HIV-1 Env of pseudovirus Ce2010_F5 (HIV-1)
[9] = molecular target: HIV-1 Env of pseudovirus 1006_11_C3_1601 (HIV-1)
[10] = molecular target: HIV-1 Env of pseudovirus CAP210.2.00.E8 (HIV-1)
[11] = molecular target: HIV-1 Env of pseudovirus CNE21 (HIV-1)
[12] = molecular target: HIV-1 Env of pseudovirus AC10.0.29 (HIV-1)
[13] = molecular target: HIV-1 Env of pseudovirus 6244_13_B5_4576 (HIV-1)
[14] = molecular target: HIV-1 Env of pseudovirus WITO4160.33 (HIV-1)
[15] = molecular target: HIV-1 Env of pseudovirus THRO4156.18 (HIV-1)
[16] = molecular target: HIV-1 Env of pseudovirus MS208.A1 (HIV-1)
[17] = molecular target: HIV-1 Env of pseudovirus Ce703010054_2A2 (HIV-1)
[18] = molecular target: HIV-1 Env of pseudovirus Ce1172_H1 (HIV-1)
[19] = molecular target: HIV-1 Env of pseudovirus BF1266.431a (HIV-1)
[20] = molecular target: HIV-1 Env of pseudovirus CNE19 (HIV-1)
[21] = molecular target: HIV-1 Env of pseudovirus HIV-16845-2.22 (HIV-1)
[22] = molecular target: HIV-1 Env of pseudovirus 7030102001E5(Rev-) (HIV-1)
[23] = molecular target: HIV-1 Env of pseudovirus REJO4541.67 (HIV-1)
[24] = molecular target: HIV-1 Env of pseudovirus 246F C1G (HIV-1)

N49P9 (antibody)
IC50 [1]: 0.023 µg/mL | IC80 [1]: 0.078 µg/mL | MPI [1]: 100 | IC50 [2]: 0.152 µg/mL | IC80 [2]: 0.801 µg/mL | MPI [2]: 97 | IC50 [3]: 2.09 µg/mL | IC80 [3]: 7.38 µg/mL | MPI [3]: 100 | IC50 [4]: 0.063 µg/mL | IC80 [4]: 0.162 µg/mL | MPI [4]: 100 | IC50 [5]: 0.026 µg/mL | IC80 [5]: 0.09 µg/mL | MPI [5]: 100 | IC50 [6]: 0.224 µg/mL | IC80 [6]: 0.863 µg/mL | MPI [6]: 97 | IC50 [7]: 0.807 µg/mL | IC80 [7]: > 50 µg/mL | MPI [7]: 74 | IC50 [8]: 0.089 µg/mL | IC80 [8]: 0.271 µg/mL | MPI [8]: 100 | IC50 [9]: 0.076 µg/mL | IC80 [9]: 0.231 µg/mL | MPI [9]: 100 | IC50 [10]: > 50 µg/mL | IC80 [10]: > 50 µg/mL | MPI [10]: 32 | IC50 [11]: > 50 µg/mL | IC80 [11]: > 50 µg/mL | MPI [11]: 36 | IC50 [12]: 0.285 µg/mL | IC80 [12]: 0.986 µg/mL | MPI [12]: 100 | IC50 [13]: 0.132 µg/mL | IC80 [13]: 0.366 µg/mL | MPI [13]: 100 | IC50 [14]: 0.058 µg/mL | IC80 [14]: 0.165 µg/mL | MPI [14]: 100 | IC50 [15]: 1.41 µg/mL | IC80 [15]: 8.21 µg/mL | MPI [15]: 99 | IC50 [16]: 0.08 µg/mL | IC80 [16]: 0.294 µg/mL | MPI [16]: 100 | IC50 [17]: 0.187 µg/mL | IC80 [17]: 0.898 µg/mL | MPI [17]: 98 | IC50 [18]: 8.8 µg/mL | IC80 [18]: > 50 µg/mL | MPI [18]: 70 | IC50 [19]: 0.154 µg/mL | IC80 [19]: 0.519 µg/mL | MPI [19]: 99 | IC50 [20]: 0.031 µg/mL | IC80 [20]: 0.136 µg/mL | MPI [20]: 100 | IC50 [21]: 1.09 µg/mL | IC80 [21]: 9.96 µg/mL | MPI [21]: 98 | IC50 [22]: 0.453 µg/mL | IC80 [22]: 2.03 µg/mL | MPI [22]: 100 | IC50 [23]: 0.071 µg/mL | IC80 [23]: 0.291 µg/mL | MPI [23]: 100 | IC50 [24]: > 50 µg/mL | IC80 [24]: > 50 µg/mL | MPI [24]: 48

PG16 (antibody)
IC50, titer in TZM.bl cells [1]: 0.375 µg/mL | IC80, titer in TZM.bl cells [1]: 3.92 µg/mL | IC50, titer in TZM.bl cells [2]: 0.127 µg/mL | IC80, titer in TZM.bl cells [2]: 18.1 µg/mL | IC50, titer in TZM.bl cells [3]: 1.83 µg/mL | IC80, titer in TZM.bl cells [3]: 33 µg/mL | IC50, titer in TZM.bl cells [4]: 0.435 µg/mL | IC80, titer in TZM.bl cells [4]: > 50 µg/mL | IC50, titer in TZM.bl cells [5]: 0.009 µg/mL | IC80, titer in TZM.bl cells [5]: 0.026 µg/mL | IC50, titer in TZM.bl cells [6]: > 50 µg/mL | IC80, titer in TZM.bl cells [6]: > 50 µg/mL | IC50, titer in TZM.bl cells [7]: 0.065 µg/mL | IC80, titer in TZM.bl cells [7]: 45.9 µg/mL | IC50, titer in TZM.bl cells [8]: > 50 µg/mL | IC80, titer in TZM.bl cells [8]: > 50 µg/mL | IC50, titer in TZM.bl cells [9]: > 50 µg/mL | IC80, titer in TZM.bl cells [9]: > 50 µg/mL | IC50, titer in TZM.bl cells [10]: 0.01 µg/mL | IC80, titer in TZM.bl cells [10]: 0.042 µg/mL | IC50, titer in TZM.bl cells [11]: 0.007 µg/mL | IC80, titer in TZM.bl cells [11]: 0.026 µg/mL | IC50, titer in TZM.bl cells [12]: 0.023 µg/mL | IC80, titer in TZM.bl cells [12]: 0.417 µg/mL | IC50, titer in TZM.bl cells [13]: > 50 µg/mL | IC80, titer in TZM.bl cells [13]: > 50 µg/mL | IC50, titer in TZM.bl cells [14]: 0.002 µg/mL | IC80, titer in TZM.bl cells [14]: 0.012 µg/mL | IC50, titer in TZM.bl cells [15]: 6.83 µg/mL | IC80, titer in TZM.bl cells [15]: > 50 µg/mL | IC50, titer in TZM.bl cells [16]: 0.002 µg/mL | IC80, titer in TZM.bl cells [16]: 0.004 µg/mL | IC50, titer in TZM.bl cells [17]: 0.008 µg/mL | IC80, titer in TZM.bl cells [17]: 0.053 µg/mL | IC50, titer in TZM.bl cells [18]: 0.007 µg/mL | IC80, titer in TZM.bl cells [18]: 0.037 µg/mL | IC50, titer in TZM.bl cells [19]: 0.003 µg/mL | IC80, titer in TZM.bl cells [19]: 0.009 µg/mL | IC50, titer in TZM.bl cells [20]: 0.024 µg/mL | IC80, titer in TZM.bl cells [20]: 3.07 µg/mL | IC50, titer in TZM.bl cells [21]: 3.13 µg/mL | IC80, titer in TZM.bl cells [21]: > 50 µg/mL | IC50, titer in TZM.bl cells [22]: > 50 µg/mL | IC80, titer in TZM.bl cells [22]: > 50 µg/mL | IC50, titer in TZM.bl cells [23]: 0.039 µg/mL | IC80, titer in TZM.bl cells [23]: 13.4 µg/mL | IC50, titer in TZM.bl cells [24]: > 50 µg/mL | IC80, titer in TZM.bl cells [24]: > 50 µg/mL

10E8 (antibody)
IC50, titer in TZM.bl cells [1]: 0.728 µg/mL | IC80, titer in TZM.bl cells [1]: 5.28 µg/mL | IC50, titer in TZM.bl cells [2]: 1.51 µg/mL | IC80, titer in TZM.bl cells [2]: 6.29 µg/mL | IC50, titer in TZM.bl cells [3]: 1.28 µg/mL | IC80, titer in TZM.bl cells [3]: 9.28 µg/mL | IC50, titer in TZM.bl cells [4]: > 10 µg/mL | IC80, titer in TZM.bl cells [4]: > 10 µg/mL | IC50, titer in TZM.bl cells [5]: 0.304 µg/mL | IC80, titer in TZM.bl cells [5]: 3.06 µg/mL | IC50, titer in TZM.bl cells [6]: 0.171 µg/mL | IC80, titer in TZM.bl cells [6]: 1.19 µg/mL | IC50, titer in TZM.bl cells [7]: 4.59 µg/mL | IC80, titer in TZM.bl cells [7]: > 10 µg/mL | IC50, titer in TZM.bl cells [8]: 1.84 µg/mL | IC80, titer in TZM.bl cells [8]: 8.61 µg/mL | IC50, titer in TZM.bl cells [9]: 0.172 µg/mL | IC80, titer in TZM.bl cells [9]: 3 µg/mL | IC50, titer in TZM.bl cells [10]: 0.798 µg/mL | IC80, titer in TZM.bl cells [10]: 3.89 µg/mL | IC50, titer in TZM.bl cells [11]: 1.9 µg/mL | IC80, titer in TZM.bl cells [11]: > 10 µg/mL | IC50, titer in TZM.bl cells [12]: 0.132 µg/mL | IC80, titer in TZM.bl cells [12]: 1.53 µg/mL | IC50, titer in TZM.bl cells [13]: 0.086 µg/mL | IC80, titer in TZM.bl cells [13]: 0.809 µg/mL | IC50, titer in TZM.bl cells [14]: 0.094 µg/mL | IC80, titer in TZM.bl cells [14]: 1.23 µg/mL | IC50, titer in TZM.bl cells [15]: 0.156 µg/mL | IC80, titer in TZM.bl cells [15]: 0.884 µg/mL | IC50, titer in TZM.bl cells [16]: 0.609 µg/mL | IC80, titer in TZM.bl cells [16]: 3.72 µg/mL | IC50, titer in TZM.bl cells [17]: 2.3 µg/mL | IC80, titer in TZM.bl cells [17]: 8.58 µg/mL | IC50, titer in TZM.bl cells [18]: 0.722 µg/mL | IC80, titer in TZM.bl cells [18]: 4.82 µg/mL | IC50, titer in TZM.bl cells [19]: 2.69 µg/mL | IC80, titer in TZM.bl cells [19]: > 10 µg/mL | IC50, titer in TZM.bl cells [20]: 0.666 µg/mL | IC80, titer in TZM.bl cells [20]: 6.49 µg/mL | IC50, titer in TZM.bl cells [21]: 0.068 µg/mL | IC80, titer in TZM.bl cells [21]: 0.495 µg/mL | IC50, titer in TZM.bl cells [22]: 6.71 µg/mL | IC80, titer in TZM.bl cells [22]: > 10 µg/mL | IC50, titer in TZM.bl cells [23]: 0.203 µg/mL | IC80, titer in TZM.bl cells [23]: 1.69 µg/mL | IC50, titer in TZM.bl cells [24]: 2.22 µg/mL | IC80, titer in TZM.bl cells [24]: 9.94 µg/mL
